# Source: patent publication US20150210761A1 (SAMSUNG ELECTRONICS, published 2015)
# T1: FLAG-tagged hAng-2 (human, UniProt O15123 19-496)
# T1 sequence: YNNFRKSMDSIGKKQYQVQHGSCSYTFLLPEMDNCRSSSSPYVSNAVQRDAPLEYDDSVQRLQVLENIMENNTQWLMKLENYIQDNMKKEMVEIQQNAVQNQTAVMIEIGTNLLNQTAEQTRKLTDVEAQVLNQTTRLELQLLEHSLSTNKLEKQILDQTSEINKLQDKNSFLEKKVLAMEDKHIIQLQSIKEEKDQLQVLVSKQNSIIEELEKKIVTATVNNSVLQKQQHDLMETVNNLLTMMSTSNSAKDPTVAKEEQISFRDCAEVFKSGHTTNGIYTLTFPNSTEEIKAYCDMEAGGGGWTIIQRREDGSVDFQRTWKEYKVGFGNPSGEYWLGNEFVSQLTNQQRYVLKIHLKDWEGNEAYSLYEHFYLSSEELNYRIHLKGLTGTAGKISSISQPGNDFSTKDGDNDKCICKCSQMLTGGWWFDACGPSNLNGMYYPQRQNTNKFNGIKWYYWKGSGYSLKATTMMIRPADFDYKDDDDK
# T2: recombinant hAng-2 (C-His, R&D Systems) (human, UniProt O15123 19-496)
# T2 construct: Bought protein; Captured on an anti-His antibody chip for SPR; also called human Ang2; not shown: C-terminal His tag
# T2 sequence: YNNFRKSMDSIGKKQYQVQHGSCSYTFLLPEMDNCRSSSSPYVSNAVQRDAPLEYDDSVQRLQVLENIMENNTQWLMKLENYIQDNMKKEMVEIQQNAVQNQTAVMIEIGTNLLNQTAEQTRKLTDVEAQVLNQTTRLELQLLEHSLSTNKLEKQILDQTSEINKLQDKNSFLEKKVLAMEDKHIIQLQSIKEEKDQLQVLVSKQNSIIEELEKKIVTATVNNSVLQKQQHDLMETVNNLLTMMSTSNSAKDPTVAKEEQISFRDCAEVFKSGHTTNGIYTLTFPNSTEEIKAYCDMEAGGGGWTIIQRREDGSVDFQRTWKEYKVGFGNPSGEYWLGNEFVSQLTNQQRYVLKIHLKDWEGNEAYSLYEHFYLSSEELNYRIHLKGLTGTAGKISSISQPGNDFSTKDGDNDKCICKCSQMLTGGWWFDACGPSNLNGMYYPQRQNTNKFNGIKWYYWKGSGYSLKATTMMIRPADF
# T3: hAng1 (human, UniProt Q15389 20-498, limits assumed)
# T3 construct: Tested by the same SPR set-up as hAng2; the construct is not described; also called human Ang1
# T3 sequence (looked up): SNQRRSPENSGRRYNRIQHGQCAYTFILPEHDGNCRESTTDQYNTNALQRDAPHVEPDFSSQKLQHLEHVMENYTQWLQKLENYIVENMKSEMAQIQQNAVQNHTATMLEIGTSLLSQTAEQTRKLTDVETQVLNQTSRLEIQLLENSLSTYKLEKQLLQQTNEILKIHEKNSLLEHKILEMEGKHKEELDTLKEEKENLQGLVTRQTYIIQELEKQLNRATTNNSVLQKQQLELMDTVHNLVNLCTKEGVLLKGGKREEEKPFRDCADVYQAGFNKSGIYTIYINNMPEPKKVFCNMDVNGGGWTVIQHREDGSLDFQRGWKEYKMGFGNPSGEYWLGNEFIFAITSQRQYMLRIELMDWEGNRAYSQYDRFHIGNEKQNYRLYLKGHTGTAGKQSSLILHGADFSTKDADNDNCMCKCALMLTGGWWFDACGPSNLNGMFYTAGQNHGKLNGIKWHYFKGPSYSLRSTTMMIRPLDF
# T4: human Ang2 protein (R&D systems) (human, UniProt O15123 19-496)
# T4 sequence: T2 sequence
# B1: SAIT-ANG2-AB-m3E2 (antibody, V domains shown)
# VH: EVQLQQSGAELVKPGASVKLSCTASGFNIKDPYIHWVKQRPEQGLEWIGRIDPANGNTKYDPKFQGKATITADTSSNTAYLQLSSLTSEDTAVYYCVRRWDGGGFDYWGQGTSVTVSS
# VL: DIQMTQTTSSLSASLGDRVTISCRASQDISNYLNWYQQKPDGTVKLLIYYTSRLHSGVPSRFSGSGSGTDYSLTITNLEQEDIATYFCQQGNTLPWTFGGGTKLEIK
# notes: also called hybridoma KCLRF-BP-00305
# B2: SAIT-ANG2-AB-m1A10 (antibody, V domains shown)
# VH: QVQLQQSGAELMKPGASVKISCKATDYTFSSYWLEWLIQRPGHGLEWIGEILPGSGSTNYNEKFRGKATFTEDTSSNTAYMQLSSLTSEDSAVYYCARGNHNSYYYAMDYWGQGTSVTVSS
# VL: DIVLTQSPASLAVSLGQRATISCRASESVDSYGNSFMHWYQQKPGQPPKLLIYRASNLDSGIPARFSGSGSRTDFTLTINPVEADDVATYYCQQSNEDPLTFGAGTKLELK
# notes: also called hybridoma KCLRF-BP-00306
# B3: SAIT-ANG2-AB-m8D3 (antibody, V domains shown)
# VH: EVQLQQSGPELVKPGDSVKMSCKASGYTFTDYYMKWVRQSHGKSLQWVGEINPKNGDTFYNQIFKGKATLTVDKSSSTAYMQLTSLTSEDSAVYYCTRENDYDVGFFDYWGQGTSVTVSS
# VL: TIVMTQTPKFLLVSAGDRITITCKASQSVSNDVAWYQQKPGQSPKLLIYYASNRYPGVPDRFTGSGYGTDFTFTISTVQAEDLAVYFCQQDYTSPWTFGGGTELEIK
# notes: also called hybridoma KCLRF-BP-00308
# Molecular target: T1, FLAG-tagged hAng-2
# Assay: Ang2:Tie2 competition ELISA; hTie2-Fc coated, 400 ng/ml FLAG-tagged hAng-2, anti-FLAG-HRP detection
# Experimental: More specifically, MaxiSorp™ flat-bottom plate (Nunc) of 96-well was coated with hTie2-Fc (R&D Systems) which is a protein bound with 4 μg/ml of Fc of human IgG1. After coating, the plate was washed five times with 0.05% (v/v) Tween-20-containing PBS (phosphate buffer saline) and then blocked with 1% (v/v) BSA (bovine serum albumin; Sigma)-containing PBS at a room temperature for 2 hour.
# For Ang2:Tie2 competition ELISA, each anti-Ang2 antibody obtained in Example 2 was placed at various concentrations of 400 nM-0.001 nM into each well coated with the hTie-2/Fc fusion protein along with 1% (v/v) BSA and 400 ng/ml of a FLAG-tagged hAng-2 and then, the plate was allowed to react at a room temperature for 2 hours and washed five times with PBST. After that, a HRP-conjugated anti-FLAG antibody (Sigma) diluted in 1% (v/v) BSA-containing PBS at a ratio of 1:5,000 (v/v) was added in an amount of […] to each well to react at a room temperature for 1 hour and then, the plate was washed five times with PBST. Lastly, 100 μl of TMB substrate (Cell Signaling) was added to each well of the plate to induce color development for 3 min. and then, the reaction was ceased by the addition of 100 μl of Stop solution (Cell Signaling) and OD450 values were measured on a plate reader (Molecular Devices).
row,IC50 [nM],Binder
1,0.55,B1
2,1.34,B2
3,0.99,B3

# Molecular target: T2, recombinant hAng-2 (C-His, R&D Systems)
# Assay: SPR, BIAcore T100; hAng-2 C-His captured on anti-His chip, antibody flowed
# Experimental: To more exactly measure the binding affinity of the anti-Ang2 antibodies to antigen Ang2, the binding affinity of the above antibodies to the antigen was measured by an surface plasmon resonance (SPR) method using BIAcore T100 (GE Healthcare). The SPR method uses refractive index change of light which passes a sensor chip according to the state of materials coated onto the sensor chip, and if an antigen or an antibody is flowed onto a chip coated with the antigen or antibody, it causes changes in refractive index due to their binding and Kd values are thus calculated from the measured values.
# First, anti-His antibody was immobilized on a CM5 sensor chip (GE healthcare) up to 8,000 RU levels using a pH 5.0 acetate solution and an amine coupling kit (GE Healthcare). 6 μg/ml of a recombinant hAng-2 (C-His, R&D Systems) protein was flowed onto the chip to be captured at 100 to 200 RU levels.
row,Kd [nM],Binder
1,1.3,B1
2,4.2,B2
3,4,B3

# Molecular target: T3, hAng1
# Assay: SPR, BIAcore T100
row,Binder,binding result
1,B1,no binding (tested: 100 nM (highest antibody concentration))
2,B2,no binding (tested: 100 nM (highest antibody concentration))
3,B3,no binding (tested: 100 nM (highest antibody concentration))

# Molecular target: T4, human Ang2 protein (R&D systems)
# Assay: cell-based or functional assay
row,"Tie2 phosphorylation inhibition (%), antibody at 50 nM, Tie2-overexpressing CHO cells with 20 nM human Ang2 [%]",Binder
1,76.9,B1
2,82,B2
3,76.7,B3
